Literature values in US20190351003A1, “METHODS FOR INHIBITING NONALCOHOLIC STEATOHEPATITIS, NONALCOHOLIC FATTY LIVER DISEASE, AND/OR DE NOVO LIPOGENESIS” (The Regents of the University of California, priority 2017, published 2019).
Where no end group is shown, it is not given here. The star is where a group is joined. CH2F = FC*

Biological target: T1, caspase-2 (Homo sapiens, UniProt P42575)
T1 sequence (P42575 1-452): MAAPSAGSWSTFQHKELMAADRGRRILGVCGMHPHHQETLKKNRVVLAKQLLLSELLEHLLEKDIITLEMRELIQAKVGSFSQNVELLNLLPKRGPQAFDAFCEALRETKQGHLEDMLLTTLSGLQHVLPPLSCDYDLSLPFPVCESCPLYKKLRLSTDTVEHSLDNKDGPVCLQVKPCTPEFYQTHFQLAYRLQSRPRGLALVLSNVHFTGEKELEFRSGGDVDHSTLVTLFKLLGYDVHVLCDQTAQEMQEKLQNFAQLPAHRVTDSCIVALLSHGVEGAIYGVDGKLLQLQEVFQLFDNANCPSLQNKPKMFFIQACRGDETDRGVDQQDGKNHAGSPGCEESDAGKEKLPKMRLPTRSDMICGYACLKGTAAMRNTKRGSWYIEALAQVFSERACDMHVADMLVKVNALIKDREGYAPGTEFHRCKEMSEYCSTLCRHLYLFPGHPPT
Conditions: cell-permeable peptide; fluoromethylketone derivative; cited from earlier work

VDVAD (VDVAD-CH2F) [available as a fluoromethylketone derivative]
activity of caspase-2: irreversibly inhibits
